The record followed here is publication PMC11009875.

In assay [1] the target is microtubules (bovine tubulin, Taxol-stabilised) (bovine) (UniProt Q6B856). As to the kind of experiment: optical trapping, unloaded single molecule bead assay with video tracking.
Assay [2] deals with subtilisin-digested microtubules (E-hook removed) (bovine) (UniProt Q6B856). The experiment in a line: optical trapping, rupture assay.
The target of assay [3] is microtubules (bovine tubulin, Taxol-stabilised) (bovine) (UniProt Q6B856). As to the kind of experiment: optical trapping, rupture assay.

UniProt Q6B856, sequence (Q6B856 whole entry, looked up): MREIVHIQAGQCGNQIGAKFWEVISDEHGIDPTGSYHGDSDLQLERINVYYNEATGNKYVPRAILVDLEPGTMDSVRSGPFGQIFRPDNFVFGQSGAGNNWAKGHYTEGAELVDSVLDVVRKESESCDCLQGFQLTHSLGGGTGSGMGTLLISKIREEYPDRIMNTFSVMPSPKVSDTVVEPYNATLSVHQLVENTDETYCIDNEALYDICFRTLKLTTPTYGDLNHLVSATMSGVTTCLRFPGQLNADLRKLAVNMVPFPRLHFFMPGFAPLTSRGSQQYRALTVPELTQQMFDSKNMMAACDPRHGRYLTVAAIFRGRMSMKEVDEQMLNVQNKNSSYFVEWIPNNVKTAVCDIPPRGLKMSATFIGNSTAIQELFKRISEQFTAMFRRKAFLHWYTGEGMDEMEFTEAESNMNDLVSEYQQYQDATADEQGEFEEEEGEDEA

B1: FL-HSET (full-length kinesin-14 HSET/KIFC1) (natural protein)
chain: MDPQRSPLLEVKGNIELKRPLIKAPSQLPLSGSRLKRRPDQMEDGLEPEKKRTRGLGATTKITTSHPRVPSLTTVPQTQGQTTAQKVSKKTGPRCSTAIATGLKNQKPVPAVPVQKSGTSGVPPMAGGKKPSKRPAWDLKGQLCDLNAELKRCRERTQTLDQENQQLQDQLRDAQQQVKALGTERTTLEGHLAKVQAQAEQGQQELKNLRACVLELEERLSTQEGLVQELQKKQVELQEERRGLMSQLEEKERRLQTSEAALSSSQAEVASLRQETVAQAALLTEREERLHGLEMERRRLHNQLQELKGNIRVFCRVRPVLPGEPTPPPGLLLFPSGPGGPSDPPTRLSLSRSDERRGTLSGAPAPPTRHDFSFDRVFPPGSGQDEVFEEIAMLVQSALDGYPVCIFAYGQTGSGKTFTMEGGPGGDPQLEGLIPRALRHLFSVAQELSGQGWTYSFVASYVEIYNETVRDLLATGTRKGQGGECEIRRAGPGSEELTVTNARYVPVSCEKEVDALLHLARQNRAVARTAQNERSSRSHSVFQLQISGEHSSRGLQCGAPLSLVDLAGSERLDPGLALGPGERERLRETQAINSSLSTLGLVIMALSNKESHVPYRNSKLTYLLQNSLGGSAKMLMFVNISPLEENVSESLNSLRFASKVNQCVIGTAQANRK
B1 came in with a percent of beads binding in assay [1] of 11%.

B2: HSET-ΔM (no motor; EGFP-HSET aa 1-304, tail-stalk) (domain or fragment)
chain: MDPQRSPLLEVKGNIELKRPLIKAPSQLPLSGSRLKRRPDQMEDGLEPEKKRTRGLGATTKITTSHPRVPSLTTVPQTQGQTTAQKVSKKTGPRCSTAIATGLKNQKPVPAVPVQKSGTSGVPPMAGGKKPSKRPAWDLKGQLCDLNAELKRCRERTQTLDQENQQLQDQLRDAQQQVKALGTERTTLEGHLAKVQAQAEQGQQELKNLRACVLELEERLSTQEGLVQELQKKQVELQEERRGLMSQLEEKERRLQTSEAALSSSQAEVASLRQETVAQAALLTEREERLHGLEMERRRLHNQL
In the case of B2, the bond lifetime (single Gaussian) in assay [2] amounted to 0.22 s. In assay [3], this molecule returned a bond lifetime (double Gaussian, first population) of 0.29 s; a bond lifetime (double Gaussian, second population) of 1 s; a force at rupture (first population) of 2.1 pN; a force at rupture (second population) of 5.6 pN. In assay [3], this molecule yielded a lifetime time constant k^-1 (single exponential fit) of 0.23 s.
